Experimental data: the supplement of paper PMC10567573
± gives the standard deviation.

Experiment: protein stability index of a GFP-peptide fusion (GPS, HEK-293T) (PSI 1-6); higher = more stable
[1] = treatment: DMSO, c terminus: a fixed tail appended
[2] = treatment: MLN4924 1 uM, 8 h, c terminus: a fixed tail appended
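Also: 24-mer peptide tiles fused after GFP, lentivirally expressed, FACS-sorted into six equal bins by GFP/DsRed ratio, decoded by Illumina sequencing, PSI is the read-weighted mean bin number.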

Sequence | protein stability index [1] | protein stability index [2] | protein stability index (treatment: DMSO, c terminus: native) | protein stability index (treatment: MLN4924 1 uM, 8 h, c terminus: native)
ELAEATWCGISTDMWRSENQNRAY [ZBED1] | 2.84 ± 0.33 | 2.8 ± 0.44 |  | 
ELAPDFVGDILWEHLEILQKEDVK [ETS1] | 3.95 ± 0.48 | 4.17 ± 0.29 |  | 
ELEDKDGLQSAQPTEGQGSLLTNW [MYBL2] | 5.03 ± 0.36 | 5.35 ± 0.31 |  | 
ELERIGPQHQAGSDSLLTGMAFFK [CNOT7] | 3.25 ± 0.34 | 3.62 ± 0.11 |  | 
ELLATGDKGGRVVIFQREQESKNQ [PPP2R2B] | 3.79 ± 0.82 | 3.91 ± 0.34 |  | 
ELLTCHSAEYVGHLRATEKMKTRE [HDAC6] | 3.82 ± 0.1 |  |  | 
ELRFLLVYLHGDDHQDSDEFCRNT [FAF2] | 2.29 ± 0.23 | 2.43 ± 0.32 |  | 
ELSEAAEAQHGPHSAVARISRAQY [STX11] | 4.53 ± 0.24 | 4.63 ± 0.15 |  | 
ENCLDAKSTSIQVIVKEGGLKLIQ [MLH1] | 2.7 ± 0.37 | 2.94 ± 0.22 |  | 
ENVLHFKAQGHGAKGDNVYEFHLE [HACD3] | 3.57 ± 0.3 | 3.79 ± 0.17 |  | 
EPASAREAPASVVPFVRVKREREV [USP39] | 4.93 ± 0.3 | 4.87 ± 0.58 |  | 
EPHSLLHLSRLCVRHNLGDTRLGQ [SPSB2] | 3.44 ± 0.18 | 3.35 ± 0.19 |  | 
EPPCEGNTFFCHSNMCINNTLVCN [NETO1] | 2.9 ± 0.24 | 2.85 ± 0.35 |  | 
EQDRIPEVHVPPSSAVSGVKEWFG [MIA2] | 4.35 ± 0.099 | 4.46 ± 0.35 |  | 
EQSSARQKASLLIQQALTMFPGVL [TCF25] | 2.51 ± 0.3 | 2.54 ± 0.3 |  | 
ERDALEAVFRFWAGGEKGPQAFPM [DNAAF3] | 2.5 ± 0.24 | 2.58 ± 0.28 |  | 
ERLLAVAERYGLSGSDVLDNVAYA [RAD51] | 2.8 ± 0.23 | 2.95 ± 0.094 |  | 
ERNEVRNVFKELQIMQGLEHPFLV [STK32A] | 2.71 ± 0.32 | 2.72 ± 0.41 |  | 
ERSQEESPPGSTKRRKSMSGASPK [CDC25A] | 5.48 ± 0.19 | 5.46 ± 0.12 |  | 
ERSRDVVDEVSVSLRLWDTFGDHH [RHOBTB1] | 3.27 ± 0.2 | 3.32 ± 0.31 |  | 
ERVYSLQHLDPQGAQELLEFTIRD [INTS4] | 3.74 ± 0.42 | 3.69 ± 0.31 |  | 
ESAKDWETSPLPGMLAPAAGPAFD [PPFIA4] | 4.62 ± 0.076 | 4.61 ± 0.33 |  | 
ESLTEDEATQFLKQILDGVHYLHS [DAPK3] | 3.06 ± 0.28 | 3.29 ± 0.28 |  | 

Sequence | protein stability index [1] | protein stability index [2] | protein stability index (treatment: DMSO, c terminus: native) | protein stability index (treatment: MLN4924 1 uM, 8 h, c terminus: native)
ESPDEMELDELLKEISRKRRSIRY [PTPRD] | 3.05 ± 0.24 | 3.4 ± 0.069 |  | 
ESSQKYKEGKYIIELNHMIKDNGW [YPEL3] | 3.04 ± 0.21 | 3.08 ± 0.27 |  | 
ETLDYGKNYNYGMHYCAVPPRGPL [NEUROD6] | 2.65 ± 0.31 | 2.68 ± 0.14 |  | 
ETYKMEFMYSGVENKQVVIIHHMR [INTS4] | 2.72 ± 0.56 | 2.46 ± 0.47 |  | 
EVESLTAARNACRAGTEPSDAIRV [TRIP13] | 4.33 ± 0.15 | 4.51 ± 0.27 |  | 
EVETEGPESADTGDKSESPDEANV [TOR1AIP2] | 5.32 ± 0.41 | 5.58 ± 0.3 |  | 
EVILLVVMAYDRYMAICKPLHELI [OR4A15] | 3.26 ± 0.43 | 2.97 ± 0.44 |  | 
EVIYPQHSKLTDREKTNICYLSFP [DENND6A] | 2.2 ± 0.43 | 2.54 ± 0.38 |  | 
EVKLLLSSETPIEGKNMSFVNDLT [APMAP] | 3.35 ± 0.23 | 3.56 ± 0.13 |  | 
EVMERDAKDYADSIHAIFVETSAK [RAB22A] | 4.15 ± 0.28 | 4.13 ± 0.24 |  | 
EYLSLVKGGQDVKKKVHLSEKIHP [PRIM1] | 2.65 ± 0.3 | 2.79 ± 0.39 |  | 
FANGHTYHINSISVNSDCETYMSA [PPP2R2C] | 2.68 ± 0.69 | 2.63 ± 0.23 |  | 
FEFRPELVNDDDEEADDTRYTQGT [ZC3H15] | 5.44 ± 0.25 | 5.28 ± 0.2 |  | 
FEGEGDYEEGMYADWWQEPDAKGD [P3H4] | 5.31 ± 0.12 | 5.35 ± 0.16 |  | 
FFPMGDEGASSQIGRAAGTGFTVN [HDAC6] | 3.46 ± 0.17 | 3.69 ± 0.15 |  | 
FGAAGVNRLSIGLQSLDDTELRLL [RSAD1] | 2.8 ± 0.094 | 2.76 ± 0.54 |  | 
FGGSFMAPSPSPVTPAQNNLLQPN [SNAP91] | 2.64 ± 0.59 | 3.09 ± 0.4 |  | 
FHIFRTLEVNRLMGKLLQQPNTYA [PKD2L1] | 2.46 ± 0.68 | 2.5 ± 0.26 |  | 
FHKQQWFNCIRAAIAPFQSAGSPP [NET1] | 2.69 ± 0.58 | 2.5 ± 0.3 |  | 
FHNCLIQLYCEKVQGLMKEYLLSF [VPS39] | 2.96 ± 0.26 | 3.2 ± 0.7 |  | 
FIGETLLSMNWAIVADILLYVVIP [SPNS1] | 3.29 ± 0.34 | 3.45 ± 0.25 |  | 
FIWFVCSLVYYGLTLSAGDLGGSI [SLC22A15] | 3.46 ± 0.52 | 3 ± 0.78 |  | 
FIYSTWKGRTIYLEDIYVMPEYRG [SAT2] | 3.21 ± 0.44 | 2.8 ± 0.52 |  | 

Sequence | protein stability index [1] | protein stability index [2] | protein stability index (treatment: DMSO, c terminus: native) | protein stability index (treatment: MLN4924 1 uM, 8 h, c terminus: native)
FMEFYQDVKDWWLFGFYFCMPLVC [EDNRA] | 3.155 ± 0.026 | 3.2 ± 0.56 |  | 
FMHSRNLYILGNFMQLKCFSSQKL [PNLIPRP1] | 3.11 ± 1.1 | 2.53 ± 0.74 |  | 
FNSILPGVLILFLTFFAFLHCWLN [SOAT1] | 2.22 ± 0.63 | 2.29 ± 0.36 |  | 
FNYLHTNCFEITLELSCDKFPPEE [CPN1] | 2.5 ± 0.51 | 2.09 ± 0.42 |  | 
FNYSVGFKDLNESLNALEDQDLDA [APBB1IP] | 4.13 ± 0.33 | 3.98 ± 0.68 |  | 
FPGPQEHTQVLPDVRLLPRRLPLA [DYRK1B] | 3.37 ± 0.083 | 3.58 ± 0.2 |  | 
FRDAAEEGGTAVTGGQTVVNPWII [SEPHS2] | 3.45 ± 0.2 | 3.54 ± 0.26 |  | 
FRGFPPEDLMPLAAAYGHALEQYE [P3H4] | 2.8 ± 0.36 | 3.08 ± 0.16 |  | 
FRGQILGFWEEERPFWEEEKTFWK [CCDC70] | 2.25 ± 0.33 | 2.28 ± 0.31 |  | 
FRPYFTIHDSEFKEYTTRTQAPPS [DENND6A] | 2.55 ± 0.23 | 2.71 ± 0.27 |  | 
FSHDGLHVASLADDKMVRFWRIDE [WSB1] | 2.44 ± 0.48 | 2.72 ± 0.52 |  | 
FSQKHFPEVVQHEEFILLSQGEVE [KLHL12] | 3.44 ± 0.81 | 3.45 ± 0.33 |  | 
FTLGTNAIIISTIVLDRALHIPMY [OR10K2] | 2.89 ± 0.82 | 2.87 ± 0.78 |  | 
FVAFALCMFCLYSFMPLVIKVTSA [SLC35F2] | 3.2 ± 0.44 | 3.32 ± 0.68 |  | 
FYKREMFDPAEKYKMDHRRRGIAL [CASP6] | 2.84 ± 0.2 | 2.78 ± 0.26 |  | 
FYQAVRDLLPVWLLEDMRASEAFH [ANKRD9] | 2.85 ± 0.47 | 2.59 ± 0.57 |  | 
FYQSPYDSEQVPQALRRLRPRTRK [NCF4] | 4.63 ± 0.37 | 4.68 ± 0.3 |  | 
FYSQEWYARQHCPLKNPTFLDYVR [SOAT1] | 2.4 ± 0.47 | 2.13 ± 0.25 |  | 
GALWGLQAQAVQTEQAVALLRDRT [SCARA5] | 3.07 ± 0.23 | 3.03 ± 0.31 |  | 
GASSPAAYDEALAELHAHGPAAFV [ZSWIM9] | 3.87 ± 0.22 | 3.99 ± 0.19 |  | 
GAYSSASSFSRPLGYPYVNSVSSH [DLX1] | 3.1 ± 0.15 | 3.12 ± 0.25 |  | 
GDASECPQATNAKDSGCSSPGAH [PPEF2] |  |  | 5.78 ± 0.1 | 5.57 ± 0.12
GDKGALQRLIVGNSALKDKEDQFG [INVS] | 4.62 ± 0.21 | 4.72 ± 0.093 |  | 

Sequence | protein stability index [1] | protein stability index [2] | protein stability index (treatment: DMSO, c terminus: native) | protein stability index (treatment: MLN4924 1 uM, 8 h, c terminus: native)
GEELADVGGVLRGLNHSLSYDVAL [SCARA5] | 3.4 ± 0.17 | 3.41 ± 0.21 |  | 
GEFRTGKTQICHTLAVTCQLPIDR [RAD51] | 2.73 ± 0.52 | 3.02 ± 0.29 |  | 
GGDEVDDSVSVNDIDLSLYIPRDV [ZC3H15] | 4.62 ± 0.13 | 4.45 ± 0.61 |  | 
GGFPIIRDQIFRYVHDPECVATTG [FBXO3] | 2.14 ± 0.29 | 2.7 ± 0.57 |  | 
GGGSYGKLFESVECYDPRTQQWTA [GAN] | 3 ± 0.13 | 3.13 ± 0.29 |  | 
GGPAQNAPHQQPPAPPSDALLDLH [TFE3] | 5.06 ± 0.29 | 5.29 ± 0.2 |  | 
GGSELGGWSLGRWTHDGIDINNNF [CPXM2] | 3.06 ± 0.031 | 2.64 ± 0.054 |  | 
GGVGYGDSKDCILEPLSLPESPGG [ZNF277] | 4.43 ± 0.37 | 4.98 ± 0.19 |  | 
GHLRGPEIRDWRGPQLEGEKDWGL [ZSWIM9] | 3.66 ± 0.39 | 3.52 ± 0.47 |  | 
GIAIVSVLVILISIVIFCLETLPE [KCNA3] | 2.21 ± 0.26 | 2.36 ± 0.46 |  | 
GIFKIEDSAQVARLWGIRKNRPAM [SPDEF] | 2.71 ± 0.4 | 2.86 ± 0.3 |  | 
GKTKKDYQEASNLEQFVTRFLLKE [NECAB1] | 2.97 ± 0.3 | 3.36 ± 0.37 |  | 
GLAFIAFTEAMTHFPASPFWSVMF [SLC6A17] | 3.15 ± 0.1 | 3.13 ± 0.51 |  | 
GLERRDWSPSPPATPEQGLSAFYL [SPDEF] | 3.03 ± 0.25 | 2.84 ± 0.15 |  | 
GLGFASNAFQETWYWHGDVNSNKV [LOXL2] | 3.04 ± 0.12 | 2.44 ± 0.29 |  | 
GLQAQILHCYRDRPHEVLLCSDLV [CHCHD6] | 2.39 ± 0.39 | 2.16 ± 0.33 |  | 
GLQLPSTLPVSGNLLDVYSSQGVA [TFE3] | 3.15 ± 0.53 | 3.4 ± 0.36 |  | 
GLRKRIATLFFHYIKTPLFNPEVA [IQUB] | 2.12 ± 0.36 | 2.19 ± 0.74 |  | 
GMANGQQWLQSTSGSQRHMVGQKD [TLE6] | 4.49 ± 0.17 | 4.47 ± 0.29 |  | 
GPGTPTGPSLPSKRESPGVGGGSG [ZBTB22] | 5.14 ± 0.31 | 4.96 ± 0.27 |  | 
